Consider ten molecules from publication PMC10945755 (Proceedings of the National Academy of Sciences of the …, 2024).

To fix the notation:
B1: RB1CC1(1286-1395) (domain or fragment, UniProt Q8TDY2 1286-1395, looked up)
chain: SLVAELQEKLQEEKAKFLEQLEEQEKRKNEEMQNVRTSLIAEQQTNFNTVLTREKMRKENIINDLSDKLKSTMQQQERDKDLIESLSEDRARLLEEKKKLEEEVSKLRSS
B2: RB1CC1(1343-1395) (domain or fragment, UniProt Q8TDY2 1343-1395, looked up)
chain: KENIINDLSDKLKSTMQQQERDKDLIESLSEDRARLLEEKKKLEEEVSKLRSS
B3: RB1CC1(1450-1594) (domain or fragment, UniProt Q8TDY2 1450-1594, looked up)
chain: HMLSEEKQRIMLLERTLQLKEEENKRLNQRLMSQSMSSVSSRHSEKIAIRDFQVGDLVLIILDERHDNYVLFTVSPTLYFLHSESLPALDLKPGEGASGASRRPWVLGKVMEKEYCQAKKAQNRFKVPLGTKFYRVKAVSWNKKV
B4: GABARAP (natural protein)
chain: MKFVYKEEHPFEKRRSEGEKIRKKYPDRVPVIVEKAPKARIGDLDKKKYLVPSDLTVGQFYFLIRKRIHLRAEDALFFFVNNVIPPTSATMGQLYQEHHEEDFFLYIAYSDESVYGL
B5: Trx-NAP1(1-75) (domain or fragment, UniProt Q9H6S1 1-75, looked up)
chain: MDALVEDDICILNHEKAHKRDTVTPVSIYSGDESVASHFALVTAYEDIKKRLKDSEKENSLLKKRIRFLEEKLIA
B6: NAP1(1-75) (domain or fragment, UniProt Q9H6S1 1-75, looked up)
chain: B5 chain
B7: NAP1(33-75) (domain or fragment, UniProt Q9H6S1 33-75, looked up)
chain: ESVASHFALVTAYEDIKKRLKDSEKENSLLKKRIRFLEEKLIA
B8: TAX1BP1(133-151) (domain or fragment, UniProt Q86VP1 133-151, looked up)
chain: EDEGNSDMLVVTTKAGLLE
B9: TAX1BP1(123-151) (domain or fragment, UniProt Q86VP1 123-151, looked up)
chain: SSPVEELLTMEDEGNSDMLVVTTKAGLLE
B10: RB1CC1(1396-1594) (domain or fragment, UniProt Q8TDY2 1396-1594, looked up)
chain: SFVPSPYVATAPELYGACAPELPGESDRSAVETADEGRVDSAMETSMMSVQENIHMLSEEKQRIMLLERTLQLKEEENKRLNQRLMSQSMSSVSSRHSEKIAIRDFQVGDLVLIILDERHDNYVLFTVSPTLYFLHSESLPALDLKPGEGASGASRRPWVLGKVMEKEYCQAKKAQNRFKVPLGTKFYRVKAVSWNKKV

Read-outs that look alike come from different tables or passages of the source. Some results are limits rather than exact numbers.

The target in one data set is TAX1BP1(1-121) (UniProt Q86VP1 1-121, 15N-labeled in the NMR titrations). Put plainly: ITC. For orientation: Isothermal titration calorimetry measures the heat released or taken up as one component is titrated into another.
Chain of TAX1BP1(1-121) (Q86VP1 1-121): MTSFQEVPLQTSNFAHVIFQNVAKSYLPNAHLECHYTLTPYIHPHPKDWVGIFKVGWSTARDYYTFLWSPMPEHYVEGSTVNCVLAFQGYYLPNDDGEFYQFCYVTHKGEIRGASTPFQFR
The data set “AUC” concerns the molecule itself. Put plainly: AUC.
Data set [1] addresses T1, TAX1BP1(1-237) (UniProt Q86VP1 1-237, labeled (label not named) in the spectral shift binding assay). Description: spectral shift binding assay.
The data set “crystal structure” deals with the molecule itself. Description: crystal structure.
The target in data set [2] is T1, TAX1BP1(1-237). Description: SEC. Background: Size exclusion chromatography separates by hydrodynamic size, large species first.
The target of data set [3] is TAX1BP1(1-237)/RB1CC1(1286-1395) complex (UniProt Q86VP1 1-237; Q8TDY2 1286-1395). Description: SEC.
Chain of TAX1BP1(1-237)/RB1CC1(1286-1395) complex (Q86VP1 1-237, one chain of several): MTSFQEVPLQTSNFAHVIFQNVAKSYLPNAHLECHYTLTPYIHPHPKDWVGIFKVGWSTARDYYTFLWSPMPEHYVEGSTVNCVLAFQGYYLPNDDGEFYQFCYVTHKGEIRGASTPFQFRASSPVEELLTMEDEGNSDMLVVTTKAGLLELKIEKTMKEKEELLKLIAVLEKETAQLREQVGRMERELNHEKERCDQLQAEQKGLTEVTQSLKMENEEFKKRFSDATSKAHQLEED
Data set [4] deals with TAX1BP1(1-237)/NAP1(1-75)/RB1CC1(1286-1594) ternary complex (UniProt Q86VP1 1-237; Q9H6S1 1-75; Q8TDY2 1286-1594). Put plainly: SEC.
Chain of TAX1BP1(1-237)/NAP1(1-75)/RB1CC1(1286-1594) ternary complex (Q86VP1 1-237, one chain of several): as above
Data set [5] addresses T2, Trx-TAX1BP1(1-237) (UniProt Q86VP1 1-237). Put plainly: SEC.
Another data set addresses Nano-RB1CC1(1286-1594) (UniProt Q8TDY2 1286-1594). Put plainly: SEC.
For data set [6], the target named is TAX1BP1(1-237)/RB1CC1(1286-1594) complex (Trx-TAX1BP1(1-237) with Nano-RB1CC1(1286-1594)) (UniProt Q86VP1 1-237; Q8TDY2 1286-1594). Put plainly: SEC.
Chain of TAX1BP1(1-237)/RB1CC1(1286-1594) complex (Trx-TAX1BP1(1-237) with Nano-RB1CC1(1286-1594)) (Q86VP1 1-237, one chain of several): as above
The target of data set [7] is TAX1BP1(1-237)/RB1CC1(1286-1594) R1375A (UniProt Q86VP1 1-237; Q8TDY2 1286-1594, R1375A). Put plainly: SEC.
Chain of TAX1BP1(1-237)/RB1CC1(1286-1594) R1375A (Q86VP1 1-237, stated change not applied, one chain of several): as the sequence (Q86VP1 1-237, one chain of several) above
Data set [8] has as its target T2, Trx-TAX1BP1(1-237). Description: AUC.
For data set [9], the target named is T1, TAX1BP1(1-237). Description: SEC. The source holds these as a separate data set.
The target in the data set “GABARAP” is B4. Put plainly: ITC.
In another data set the target is GABARAPL1 (UniProt Q9H0R8 1-117). Put plainly: ITC.
Chain of GABARAPL1 (Q9H0R8 whole entry): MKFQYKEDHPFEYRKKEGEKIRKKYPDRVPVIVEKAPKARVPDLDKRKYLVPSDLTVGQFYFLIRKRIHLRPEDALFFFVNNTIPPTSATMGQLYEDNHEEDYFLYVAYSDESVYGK
For a further data set, the target named is GABARAPL2 (UniProt P60520 1-117). Put plainly: SEC.
Chain of GABARAPL2 (P60520 whole entry): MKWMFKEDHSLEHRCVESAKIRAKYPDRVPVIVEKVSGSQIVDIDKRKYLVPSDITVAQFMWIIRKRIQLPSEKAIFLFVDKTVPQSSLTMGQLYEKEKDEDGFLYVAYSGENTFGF

T1 sequence (Q86VP1 1-237): as the sequence (Q86VP1 1-237, one chain of several) above
T2 sequence (Q86VP1 1-237): as the sequence (Q86VP1 1-237, one chain of several) above

Usually Kd stands for the concentration at which binding is half-saturated. As a reminder, the stoichiometry N is a count of units in the complex or per binding partner. Consider B1, for which the equilibrium dissociation constant (Kd) with TAX1BP1(1-121) is roughly 4.91 µM; in the data set with TAX1BP1(1-237) [1] it was roughly 1.13 µM. Further, in the data set “AUC”, the “stoichiometry N” value turned out to be 2.
As for B2, in the data set “crystal structure”, the “stoichiometry N” value came to 2.
On to B3, for which, in the data set with TAX1BP1(1-237) [1], the Kd is greater than 136 µM.
Take B4: the binding result (with TAX1BP1(1-237) [2]; in data set [3]; in [4]) was “binds” each time.
Take B5: the binding result (with Trx-TAX1BP1(1-237) [5]; with Nano-RB1CC1(1286-1594); in [6]) was “binds” throughout.
Regarding B6, in [7], the binding result is listed as “binds”.
As for B7, the binding result with Trx-TAX1BP1(1-237) [8] and with TAX1BP1(1-237) [9] was “binds” each time.
In the case of B8, in the data set with GABARAP, the binding result is “binds”.
On to B9, for which the equilibrium dissociation constant (Kd) was found to be 4.07 µM in the data set with GABARAP and 9.54 µM with GABARAPL1. The binding result with GABARAPL2 was “binds”.
Consider B10, for which the binding result in the data set with TAX1BP1(1-237) [2] is given as “binds”.
